Assay [1] deals with T1, FcγRIIIa extracellular domain with C-terminal His tag (human, UniProt P08637 17-208).
T1 construct: extracellular domain; also called FcgRIIIa; 3a; not shown: His tag at the C terminus
The experiment in a line: SPR relative binding; GpH7-A5/GpH7-B3/GpL16-k0 = 100. The source says: First, variants of interest were expressed and prepared according to the method described in Reference Example 1, using GpH7-A5 as an H chain; and GpL16-k0 as the L chain; and as the other H chain, GpH7-HA5 (SEQ ID NO: 19), GpH7-HA6 (SEQ ID NO: 20), and GpH7-HA11 (SEQ ID NO: 21) resulting from the introduction of L234Y, G236W, and S298A, respectively, into GpH7-B12 introduced with the alteration P329R. Furthermore, antibodies of interest were expressed and prepared according to the method described in Reference Example 1, using as an H chain, GpH7-A48 (SEQ ID NO: 16) resulting from the introduction of P329R into GpH7-A5; and GpL16-k0 as the L chain; and as the other H chain, GpH7-B3-01-15Y (SEQ ID NO: 22), GpH7-B3-03-20W (SEQ ID NO: 23), and GpH7-B3-15-02A (SEQ ID NO: 24) resulting from the introduction of L234Y, G236W, and S298A, respectively, into GpH7-B3. The antibodies thus obtained were named GpH7-A5/GpH7-HA5/GpL16-k0 (SEQ ID NOs: 3, 19, and 5, respectively), GpH7-A5/GpH7-HA6/GpL16-k0 (SEQ ID NOs: 3, 20, and 5, respectively), GpH7-A5/GpH7-HA11/GpL16-k0 (SEQ ID NOs: 3, 21, and 5, respectively), GpH7-A48/GpH7-B3-01-15Y/GpL16-k0 (SEQ ID NOs: 16, 22, and 5, respectively), GpH7-A48/GpH7-B3-03-20W/GpL16-k0 (SEQ ID NOs: 16, 23, and 5, respectively), and GpH7-A48/GpH7-B3-15-02A/GpL16-k0 (SEQ ID NO: 16, 24, and 5, respectively). The variants were compared to each other for the FcγRIIIa-binding activity according to the method described in Reference Example 2.
Analysis of interaction between objective antibody and the FcγR was carried out using Biacore T100 (GE Healthcare). HBS-EP+ (GE Healthcare) was used as the running buffer, and the measurement temperature was set to 25° C. Chips produced by immobilizing the antigen peptide by the amine coupling method to a Series S Sencor Chip CM5 (GE Healthcare), or alternatively, chips produced by allowing preliminarily biotinylated antigen peptides to interact with and immobilize onto a Series S Sensor Chip SA (certified) (GE Healthcare) were used. Antibodies of interest were captured onto an antigen peptide-immobilized chip, and allowed to interact to each FcγR diluted with running buffer. To regenerate and repeatedly use the chip, the antibodies captured on the chip were washed off by reacting 10 mM glycine-HCl, pH 1.5.

The target of assay [2] is T2, FcgRIIIa V (human, UniProt P08637 17-208).
T2 construct: extracellular domain; also called FcγRIIIa V; not shown: His tag attached to the C terminus
T2 sequence (P08637 17-208 F176V limits assumed): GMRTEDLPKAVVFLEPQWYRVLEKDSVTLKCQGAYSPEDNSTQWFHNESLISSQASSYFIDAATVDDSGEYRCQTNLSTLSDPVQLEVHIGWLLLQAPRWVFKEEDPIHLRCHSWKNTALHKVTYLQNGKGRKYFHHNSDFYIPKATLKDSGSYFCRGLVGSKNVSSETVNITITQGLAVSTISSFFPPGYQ
The experiment in a line: SPR (Biacore), antibody captured on chip, FcgR extracellular domain as analyte. The method, then: (§1) Analysis of interaction between obj ective antibody and the FcγR was carried out using Biacore T100 (GE Healthcare), Biacore T200, Biacore A100, and Biacore 4000. HBS-EP+ (GE Healthcare) was used as the running buffer, and the measurement temperature was set to 25° C. Chips produced by immobilizing the antigen peptide by the amine coupling method to a Series S sensor Chip CM5 (GE Healthcare), chips produced by allowing preliminarily biotinylated antigen peptides to interact with and immobilize onto a Series S Sensor Chip SA (certified) (GE Healthcare), chips produced by immobilizing Protein L (ACTIGEN, BioVision) to Series S Sencor Chip CM5 (GE Healthcare), or chips produced by immobilizing Protein A/G (Thermo Scientific) to Series S Sencor Chip CM5 (GE Healthcare) were used. Antibodies of interest were captured onto these chips, and allowed to interact to each FcγR diluted with running buffer. To regenerate and repeatedly use the chip, the antibodies captured onto the chip were washed off by reacting 10 mM glycine-HCl, pH 1.5.
(Surface plasmon resonance follows binding to a sensor surface in real time, without labels.)

For assay [3], the target named is T3, FcgRIIa H (human, UniProt P12318 34-217).
T3 construct: extracellular domain; also called FcγRIIa H; FcγRIIa type H; not shown: His tag attached to the C terminus
T3 sequence (looked up): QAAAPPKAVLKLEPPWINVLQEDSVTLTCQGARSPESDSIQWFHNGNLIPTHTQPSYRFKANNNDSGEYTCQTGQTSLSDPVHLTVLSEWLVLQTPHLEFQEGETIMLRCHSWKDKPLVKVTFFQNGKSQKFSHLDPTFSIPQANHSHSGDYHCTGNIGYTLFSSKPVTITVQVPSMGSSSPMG
Described as above. The method, then:
as §1

Assay [4] concerns the target T4, FcgRIIIa F (human, UniProt P08637 17-208).
T4 construct: extracellular domain; also called FcγRIIIa F; not shown: His tag attached to the C terminus
The description is as above. The method, then:
as §1

Assay [5] concerns the target T5, FcgRIIa R (human, UniProt P12318 34-217).
T5 construct: extracellular domain; also called FcγRIIa R; FcγRIIa type R; not shown: His tag attached to the C terminus
T5 sequence (looked up): T3 sequence (looked up) with H134R
Described as above. The method, then: as §1

The target in another assay is T6, FcgRIIb (human, UniProt P31994 43-217).
T6 construct: extracellular domain; Expressed in FreeStyle293 cells and purified; used as analyte in Biacore; also called FcγRIIb; CD32B; not shown: His tag attached to the C terminus
T6 sequence (looked up): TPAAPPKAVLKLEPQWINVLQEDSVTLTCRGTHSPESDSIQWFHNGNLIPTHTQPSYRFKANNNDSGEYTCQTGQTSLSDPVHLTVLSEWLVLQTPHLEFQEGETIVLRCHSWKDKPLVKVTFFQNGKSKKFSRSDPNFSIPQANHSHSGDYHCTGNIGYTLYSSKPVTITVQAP
The description is as above. The method, then:
(§2) Specifically, H240-Kn120 (SEQ ID NO: 99) resulting from introduction of S239M into H240-Kn067 and H240-Kn126 (SEQ ID NO: 100) resulting from introduction of Y235Q into H240-Kn120 were prepared according to the method described in Reference Example 1. […] Those described above were assayed for the binding to each FcgR according to the method described in Reference Example 8.
as §1

For assay [6], the target named is T2, FcgRIIIa V. The description is as above. The method, then: as §2, §1
This is another data set of the same source.

For assay [7], the target named is T3, FcgRIIa H. The assay is described as above. The method, then: as §2, §1
The source holds these as a separate data set.

For assay [8], the target named is T4, FcgRIIIa F. Described as above. The method, then: as §2, §1
This is another data set of the same source.

The target of assay [9] is T5, FcgRIIa R. The assay is described as above. The method, then: as §2, §1
This is another data set of the same source.

Another assay addresses T7, FcgRIa (human, UniProt P12314 16-292).
T7 construct: extracellular domain; Expressed in FreeStyle293 cells and purified; used as analyte in Biacore; also called FcγRIa; FcγRI; not shown: His tag attached to the C terminus
The description is as above. The method, then:
as §2, §1

Positions count from the first letter of the chain named. Names may count otherwise. Like-named read-outs stand apart in the source and are kept apart here.

T1 sequence (P08637 17-208): as the sequence (P08637 17-208 F176V limits assumed) above, with V160F counted along it
T4 sequence (P08637 17-208): as the sequence (P08637 17-208 F176V limits assumed) above, with V160F counted along it
T7 sequence (P12314 16-292): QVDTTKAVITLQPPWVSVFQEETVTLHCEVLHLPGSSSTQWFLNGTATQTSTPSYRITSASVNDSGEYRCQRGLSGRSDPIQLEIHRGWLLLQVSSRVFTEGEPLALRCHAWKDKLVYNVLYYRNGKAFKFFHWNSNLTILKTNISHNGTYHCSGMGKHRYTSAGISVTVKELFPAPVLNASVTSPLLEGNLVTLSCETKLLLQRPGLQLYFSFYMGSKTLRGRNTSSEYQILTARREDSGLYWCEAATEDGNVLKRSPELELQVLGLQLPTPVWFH

B1: GpH7-A5/GpH7-HA5/GpL16-k0 (antibody, human IgG1, kappa)
heavy 1: not shown
heavy 2: QVQLVQSGAEVKKPGASVTVSCKASGYTFTDYEMHWIRQPPGEGLEWIGAIDPKTGDTAYSESFQDRVTLTADKSTSTAYMELSSLTSEDTAVYYCTRFYSYTYWGQGTLVTVSSASTKGPSVFPLAPSSKSTSGGTAALGCLVKDYFPEPVTVSWNSGALTSGVHTFPAVLQSSGLYSLSSVVTVPSSSLGTQTYICNVNHKPSNTKVDKKVEPKSCDKTHTCPPCPAPEYLGGPSVFLFPPKPKDTLMISRTPEVTCVVVDVSHEDPEVKFNWYVDGVEVHNAKTKPREEQYNSTYRVVSVLTVLHQDWLNGKEYKCKVSNKALRAPIEKTISKAKGQPREPQVYTLPPSRDELTKNQVSLTCLVKGFYPSDIAVEWESNGQPENNYKTTPPVLDSDGSFFLYSKLTVDKSRWQQGNVFSCSVMHEALHNHYTQESLSLSP
light: DIVMTQSPLSLPVTPGEPASISCQASESLVHSNRNTYLHWYLQKPGQSPQLLIYKVSNRFSGVPDRFSGSGSGTDFTLKISRVEAEDVGVYYCSQNTHVPPTFGQGTKVEIERTVAAPSVFIFPPSDEQLKSGTASVVCLLNNFYPREAKVQWKVDNALQSGNSQESVTEQDSKDSTYSLSSTLTLSKADYEKHKVYACEVTHQGLSSPVTKSFNRGEC
notes: H2 L234Y and P329R
Take B1: the “FcγRIIIa BINDING ACTIVITY” value in assay [1] was 60 % of control.

B2: GpH7-A48/GpH7-B3-15-02A/GpL16-k0 (antibody, human IgG1, kappa)
heavy 1: B1 heavy 2 with Y232L, D354K, H433R, E437K
heavy 2: not shown
light: B1 light
notes: H1 P329R; H2 S298A
With B2, the “FcγRIIIa BINDING ACTIVITY” value in assay [1] is 47 % of control.

B3: GpH7-A5/GpH7-HA11/GpL16-k0 (antibody, human IgG1, kappa)
heavy 1: not shown
heavy 2: B1 heavy 2 with Y232L, S296A
light: B1 light
notes: H2 S298A and P329R
In the case of B3, the “FcγRIIIa BINDING ACTIVITY” value in [1] is 84 % of control.

B4: GpH7-A48/GpH7-B3-01-15Y/GpL16-k0 (antibody, human IgG1, kappa)
heavy 1: B1 heavy 2 with Y232L, D354K, H433R, E437K
heavy 2: not shown
light: B1 light
notes: H1 P329R; H2 L234Y
B4: the “FcγRIIIa BINDING ACTIVITY” value in assay [1] was 11 % of control.

B5: GpH7-A5/GpH7-HA6/GpL16-k0 (antibody, human IgG1, kappa)
heavy 1: not shown
heavy 2: B1 heavy 2 with Y232L, G234W
light: B1 light
notes: H2 G236W and P329R
As to B5, the “FcγRIIIa BINDING ACTIVITY” value in [1] was 56 % of control.

B6: GpH7-A48/GpH7-B3-03-20W/GpL16-k0 (antibody, human IgG1, kappa)
heavy 1: B1 heavy 2 with Y232L, D354K, H433R, E437K
heavy 2: not shown
light: B1 light
notes: H1 P329R; H2 G236W
As for B6, the “FcγRIIIa BINDING ACTIVITY” value in assay [1] was 13 % of control.

B7: H240-Kn067/H240-Hl068/L73-k0 (antibody, human IgG1, kappa)
heavy 1: QDQLVQSGAEVKKPGASVKVSCKASGFNIKDTYIQWVRQAPGQGLEWMGRIDPLRKQTKYREKFEGRVTITADTSTNTAYMELSSLRSEDTAVYYCVRSGREFDYWGQGTLVTVSSASTKGPSVFPLAPSSKSTSGGTAALGCLVKDYFPEPVTVSWNSGALTSGVHTFPAVLQSSGLYSLSSVVTVPSSSLGTQTYICNVNHKPSNTKVDKKVEPKSCDKTHTCPPCPAPEYYWGPSVFLFPPKPKDTLMISRTPEVTCVVVDVSDEDPEVKFNWYVDGVEVHNAKTKPREEQYNATYRVVSVLTVLHQDWLNGKEYKCKVSNKDLPAPIEKTISKAKGQPREPQVCTLPPSRDELTKNQVSLWCLVKGFYPSDIAVEWESNGQPENNYKTTPPVLDSDGSFFLYSKLTVDKSRWQQGNVFSCSVMHEALHNHYTQKSLSLSP
heavy 2: QDQLVQSGAEVKKPGASVKVSCKASGFNIKDTYIQWVRQAPGQGLEWMGRIDPLRKQTKYREKFEGRVTITADTSTNTAYMELSSLRSEDTAVYYCVRSGREFDYWGQGTLVTVSSASTKGPSVFPLAPSSKSTSGGTAALGCLVKDYFPEPVTVSWNSGALTSGVHTFPAVLQSSGLYSLSSVVTVPSSSLGTQTYICNVNHKPSNTKVDKKVEPKSCDKTHTCPPCPAPELLGGPSVFLFPPKPKDTLMISRTPEVTCVVVDVSHEEPEVKFNWYVDGVEVHNAKTKPREEQYNSTYRVVSVLTVLHQDWLNGKEYKCKVSNDALPKPIEETISKAKGQPREPQVYTLPPSRCELTKNQVSLSCAVKGFYPSDIAVEWESNGQPENNYKTTPPVLDSDGSFFLVSKLTVDKSRWQQGNVFSCSVMHEALHNHYTQKSLSLSP
light: DIQMTQSPSSLSASVGDRVTITCRASQDIHKYIAWYQQKPGQAPRLLIQYTSTLQPGVPSRFSGSGSGTDYTFTISSLQPEDIATYYCLQYEQLRTFGGGTKVEIKRTVAAPSVFIFPPSDEQLKSGTASVVCLLNNFYPREAKVQWKVDNALQSGNSQESVTEQDSKDSTYSLSSTLTLSKADYEKHKVYACEVTHQGLSSPVTKSFNRGEC
notes: Heterodimerized anti-EREG IgG1: L234Y/L235Y/G236W/H268D/S298A/A327D in Kn067, D270E/K326D/A330K/K334E in Hl068; also called H240-Kn067/H240-HI068/L73-k0
Turning to B7, the Kd with FcgRIIIa V [2] amounted to 1.6 nM; with FcgRIIa H [3] it was 94 nM; with FcgRIIIa F [4], 7.1 nM; with FcgRIIa R [5], 49 nM; with FcgRIIb, 370 nM; in the assay with FcgRIIIa V [6], 1.6 nM. For the same molecule, the Kd with FcgRIIa H [7] worked out at 94 nM; with FcgRIIIa F [8], 7.1 nM; with FcgRIIa R [9], 49 nM; in the assay with FcgRIa, 0.26 nM.

What is called Kd is a measure of binding affinity in units of concentration. Lower therefore signals higher affinity.
